By Kd is commonly meant the constant that tells how readily two partners part at equilibrium. The low end stands for higher affinity, the high end for lower affinity. The term koff denotes a measure of how fast the partners let go of each other. A word on the kon: it is the second-order rate constant of association. Lower therefore signals slower complex formation.

Among the data in US20070100561A1 (published 2007) are Kd, koff and kon values, retold here.

The target of the test is T1, DPP-IV as immobilized on the CM5 surface plasmon resonance sensor (Biacore) (human, UniProt P27487 31-766).
T1 construct: Same recombinant sDPP-IV polypeptide as m1; Amine-coupled, about 10 000 RU; in one flow cell cross-linked with carbodiimide/N-hydroxysuccinimide; also called sDPP-IV
Kind of test: SPR (Biacore), DPP-IV immobilized on CM5 sensor. As to the method: The organic adlayer on this sensor type consists of carboxymethylated dextran (MW≈100 kDA). […] The surfaces of two flow cells were modified with protein. […] Hepes buffer (0.01 M Hepes, pH 7.4, 0.15 M NaCl, 3 mM EDTA, 0.005% polysorbate 20 (v/v)) was used as the running buffer. […] The final inhibitor solution contained less than 0.1% DMSO. Binding experiments were carried out by contacting the immobilized protein surfaces with inhibitor solutions of varying concentrations at a flow rate of 10 μl/min or 30 μl/min. After each contact with inhibitor, the protein surfaces were regenerated by extensively washing with running buffer.
Background: In SPR one partner is held on a chip, and binding of the other changes the refractive index at the surface.

T1 sequence (P27487 31-766 limits assumed): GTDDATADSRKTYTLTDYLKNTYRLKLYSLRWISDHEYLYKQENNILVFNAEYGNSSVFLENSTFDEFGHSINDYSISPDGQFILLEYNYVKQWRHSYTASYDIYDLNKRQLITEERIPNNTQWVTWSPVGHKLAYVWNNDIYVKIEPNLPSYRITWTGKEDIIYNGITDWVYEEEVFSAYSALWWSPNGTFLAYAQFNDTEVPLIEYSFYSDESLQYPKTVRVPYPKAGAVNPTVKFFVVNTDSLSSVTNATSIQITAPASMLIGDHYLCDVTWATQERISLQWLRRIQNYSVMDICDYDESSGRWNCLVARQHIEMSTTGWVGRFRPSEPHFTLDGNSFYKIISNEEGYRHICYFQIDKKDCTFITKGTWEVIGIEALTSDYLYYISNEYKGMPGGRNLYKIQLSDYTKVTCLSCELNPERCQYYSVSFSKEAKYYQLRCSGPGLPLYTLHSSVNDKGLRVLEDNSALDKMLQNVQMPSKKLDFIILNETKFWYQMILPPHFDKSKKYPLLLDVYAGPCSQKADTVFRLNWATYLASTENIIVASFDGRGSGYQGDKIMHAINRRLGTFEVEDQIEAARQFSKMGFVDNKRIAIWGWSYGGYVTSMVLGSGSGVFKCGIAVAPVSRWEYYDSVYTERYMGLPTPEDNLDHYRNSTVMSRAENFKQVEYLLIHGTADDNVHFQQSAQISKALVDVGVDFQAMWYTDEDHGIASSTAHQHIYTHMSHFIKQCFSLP

B1: adenosine deaminase (ADA; Sigma Type IV, from calf intestinal mucosa) (enzyme, bovine, UniProt P56658 2-357, looked up)
chain: AQTPAFNKPKVELHVHLDGAIKPETILYYGRKRGIALPADTPEELQNIIGMDKPLSLPEFLAKFDYYMPAIAGCREAVKRIAYEFVEMKAKDGVVYVEVRYSPHLLANSKVEPIPWNQAEGDLTPDEVVSLVNQGLQEGERDFGVKVRSILCCMRHQPSWSSEVVELCKKYREQTVVAIDLAGDETIEGSSLFPGHVKAYAEAVKSGVHRTVHAGEVGSANVVKEAVDTLKTERLGHGYHTLEDATLYNRLRQENMHFEVCPWSSYLTGAWKPDTEHPVVRFKNDQVNYSLNTDDPLIFKSTLDTDYQMTKNEMGFTEEEFKRLNINAAKSSFLPEDEKKELLDLLYKAYGMPSPA
notes: Bought protein purified from tissue; also called ADA from bovine
Take B1: the affinity, expressed as Kd, was 3.15 nM; the koff was found to be 8.75e-05 s⁻¹; the kon was 29800 M⁻¹ s⁻¹.
